The text below walks through data of the Immune Epitope Database (IEDB).

The target in assay [1] is HLA-B*08:01. The experiment in a line: IEDB peptide-MHC binding, purified MHC/competitive/radioactivity; filed as Kd, often an IC50 or EC50 that approximates it; ≥ and ≤ were set here for values at or beyond the usual limits of such assays.
Assay [2] concerns the target HLA-A*01:01. The assay is described as above.
A further assay addresses HLA-A*26:01. The description is as above.
The target in the next assay is HLA-A*29:02. The description is as above.
In a further assay the target is HLA-A*30:01. Described as above.
Another assay deals with HLA-A*30:02. The assay is described as above.
Another assay concerns the target HLA-A*32:01. The assay is described as above.
The target of the next assay is HLA-A*03:01. The experiment in a line: IEDB peptide-MHC binding, purified MHC/direct/fluorescence; filed as Kd, often an IC50 or EC50 that approximates it; ≥ and ≤ were set here for values at or beyond the usual limits of such assays.
The next assay concerns the target HLA-A*31:01. The assay is described as above. The settings on record: source organism: Entamoeba histolytica HM-1:IMSS.
For a further assay, the target named is HLA-A*69:01. The assay is described as above. The settings on record: source organism: Mycobacterium tuberculosis.
Assay [3] deals with HLA-A*01:01. Described as above. The note with it: source organism: Homo sapiens.
The next assay addresses HLA-A*11:01. The assay is described as above.
A further assay deals with HLA-B*27:05. Described as above. The settings on record: source organism: Homo sapiens.
The next assay addresses HLA-A*02:01. In words: IEDB peptide-MHC binding, purified MHC/competitive/fluorescence; filed as Kd, often an IC50 or EC50 that approximates it; ≥ and ≤ were set here for values at or beyond the usual limits of such assays.
The target in assay [4] is HLA-B*08:01. The experiment in a line: IEDB peptide-MHC binding, purified MHC/direct/fluorescence; filed as Kd, often an IC50 or EC50 that approximates it; ≥ and ≤ were set here for values at or beyond the usual limits of such assays. The note with it: source organism: West Nile virus.
A further assay has as its target HLA-B*58:01. The description is as above. The note with it: source organism: SARS-CoV1.
Where [5] appears, read: source organism: Vaccinia virus WR.
The mark [6] stands for this setting: source organism: Mammarenavirus machupoense.
Where [7] appears, read: source organism: Dengue virus 4 Philippines/H241/1956.
Setting [8] is: source organism: Dengue virus 2 Jamaica/1409/1983.
Where [9] appears, read: source organism: Mammarenavirus juninense.
[10] abbreviates: source organism: Mammarenavirus guanaritoense.

For ELKEKSVKF, in the assay with HLA-B*08:01 [1] (setting [5]), the Kd is 3.19 nM.

As for CMLNNSFYY, the Kd in the assay with HLA-A*01:01 [2] (setting [6]) was 1780 nM; in the assay with HLA-A*26:01 (setting [6]), 958 nM; in the assay with HLA-A*29:02 (setting [6]) it was 1.33 nM; in the assay with HLA-A*30:01 (setting [6]) it was 556 nM; in the assay with HLA-A*30:02 (setting [6]), 5.46 nM; in the assay with HLA-A*32:01 (setting [6]) it was 10500 nM.

EDMLKVWNRV: the Kd with HLA-A*32:01 (setting [7]) came to 19600 nM.

Regarding ALNHLVLSL, the equilibrium dissociation constant (Kd) with HLA-A*32:01 (setting [5]) was determined as 41.4 nM.

As for ANKWYFAPR, the Kd in the assay with HLA-A*03:01 (source organism: Entamoeba histolytica HM-1:IMSS) was ≥ 20000 nM; with HLA-A*31:01 it was 1.4 nM.

The sequence FLMGFNRDV displayed a Kd with HLA-A*69:01 of 1760 nM.

Take VISNLVLSY: the Kd with HLA-A*32:01 (setting [5]) is 808 nM.

For SMTKKFKTI, the Kd with HLA-B*08:01 [1] (setting [5]) was 151 nM.

In the case of RPKIKTNDI, in the assay with HLA-B*08:01 [1] (setting [5]), the Kd was found to be 2.11 nM.

In the case of RREEEEAGVL, the Kd in the assay with HLA-B*08:01 [1] (setting [8]) amounted to 2160 nM.

On to SIYRMSYQF, for which, in the assay with HLA-A*32:01 (setting [5]), the Kd turned out to be 0.798 nM.

As for KLGNLLLLI, in the assay with HLA-A*32:01 (setting [5]), the Kd is 0.716 nM.

Regarding GRIDKPILK, the Kd in the assay with HLA-A*01:01 [3] was ≥ 53500 nM; with HLA-A*03:01 (source organism: Homo sapiens), 13500 nM; with HLA-A*11:01 (source organism: Homo sapiens), 8150 nM; in the assay with HLA-B*27:05, 790 nM.

For the sequence LTQKVVIFIL, in the assay with HLA-B*08:01 [1] (source organism: Dengue virus 3 Martinique/1243/1999), the Kd was 3100 nM.

Take SQMERFNCS: the Kd in the assay with HLA-B*08:01 [1] (source organism: Vaccinia virus Copenhagen) is 38.8 nM.

Take IDNVHTWTEQ: the Kd with HLA-A*32:01 (setting [7]) came out at 9850 nM.

Turning to IIIPFIAYFV, the Kd with HLA-A*02:01 (source organism: Variola virus) worked out at 50.5 nM.

For GVLEEQGSFY, the Kd with HLA-A*01:01 [2] (setting [9]) was 1640 nM; with HLA-A*26:01 (setting [9]), 223 nM; with HLA-A*29:02 (setting [9]) it was 1020 nM; with HLA-A*30:01 (setting [9]) it was ≥ 39600 nM; with HLA-A*30:02 (setting [9]) it was 243 nM; with HLA-A*32:01 (setting [9]) it was ≥ 69900 nM.

Turning to MTSERTLAV, the Kd in the assay with HLA-A*02:01 (source organism: Yersinia pestis Nepal516) turned out to be 57.7 nM.

Take LMKERISSE: the dissociation constant (Kd) with HLA-B*08:01 [1] (setting [5]) worked out at 81.9 nM.

As for SWDNTSVDLY, the Kd is 1280 nM with HLA-A*01:01 [2] (setting [10]); ≥ 69700 nM with HLA-A*26:01 (setting [10]); 856 nM with HLA-A*29:02 (setting [10]); 9330 nM with HLA-A*30:01 (setting [10]); 147 nM with HLA-A*30:02 (setting [10]); ≥ 69900 nM with HLA-A*32:01 (setting [10]).

As for MFGTRKNSF, the Kd with HLA-B*08:01 [1] (setting [5]) came out at 2.04 nM.

In the assay with HLA-A*69:01, LLHEVGITV gave a Kd of 1920 nM.

Sequence WLHRGPKEF came in with a Kd with HLA-B*08:01 [4] of 2510 nM.

With YSEESPTEY, the Kd is 225 nM in the assay with HLA-A*01:01 [2] (setting [10]); ≥ 77900 nM with HLA-A*26:01 (setting [10]); ≥ 25400 nM in the assay with HLA-A*29:02 (setting [10]); 19400 nM with HLA-A*30:01 (setting [10]); ≥ 76900 nM in the assay with HLA-A*30:02 (setting [10]); ≥ 77800 nM with HLA-A*32:01 (setting [10]).

For SIKSKSRRL, the Kd with HLA-B*08:01 [1] (setting [5]) amounted to 29.8 nM.

Turning to MTCGQPLSL, in the assay with HLA-A*32:01 (setting [5]), the Kd came out at 5.56 nM.

In the assay with HLA-A*02:01 (source organism: Variola virus), EIQLKIDKL yielded a Kd of 3590 nM.

With YRIAKFLFM, in the assay with HLA-B*08:01 [1] (setting [5]), the Kd came out at 16.8 nM.

On to LAGAGLAFSL, for which the Kd with HLA-B*08:01 [1] (source organism: Dengue virus 1 Brazil/97-11/1997) is 2620 nM.

Take SNRAIFVPI: the Kd in the assay with HLA-B*08:01 [1] (setting [5]) worked out at 127 nM.

As to KTTFKPNTW, the figures for the equilibrium dissociation constant (Kd) with HLA-A*11:01 (source organism: SARS-CoV1) and in the assay with HLA-B*58:01 were ≥ 32600 nM and 157 nM, respectively.

ILHLILWIL: in the assay with HLA-A*02:01 (source organism: Influenza A virus (A/Memphis/1/1978(H1N1))), the Kd came out at 6000 nM.

In the case of RKKARNTPF, in the assay with HLA-B*08:01 [1] (source organism: Dengue virus 2 Peru/IQT2913/1996), the Kd was determined as 82.7 nM.

Take TKQTGSASSM: the Kd in the assay with HLA-B*08:01 [1] (setting [8]) stood at 1440 nM.

In the case of RLPNLFHIL, the Kd with HLA-B*08:01 [1] (setting [5]) amounted to 68.5 nM.

Turning to TTDFTRLRY, the Kd turned out to be 7.53 nM in the assay with HLA-A*01:01 [2] (setting [10]); 2410 nM with HLA-A*26:01 (setting [10]); 59.5 nM in the assay with HLA-A*29:02 (setting [10]); 1930 nM in the assay with HLA-A*30:01 (setting [10]); 551 nM with HLA-A*30:02 (setting [10]); 11500 nM with HLA-A*32:01 (setting [10]).

One may read the Kd as the equilibrium constant for the complex coming apart.
